The values below come from paper PMC13147315.

In data set [1] the target is T1, N_WT (nucleocapsid, Wuhan) (SARS-CoV-2 (Wuhan), UniProt P0DTC9 1-419). The data set is described as follows: MST. The note with it: protein: recombinant, tags: 6xHis, chain copies: 2.
In data set [2] the target is N_CTD (SARS-CoV-2 (Wuhan), UniProt P0DTC9 247-364). The data set is described as follows: MST. The note with it: protein: recombinant, tags: 6xHis, chain copies: 2.
The target in data set [3] is T1, N_WT (nucleocapsid, Wuhan). The data set is described as follows: EMSA; 15-500 nM N. The note with it: protein: recombinant; tags: 6xHis; chain copies: 2; label: Cy5 on RNA2; 3' overhang 11 nt on strand 1.
Data set [4] deals with T1, N_WT (nucleocapsid, Wuhan). The data set is described as follows: EMSA; full binding at about 500 nM N. The note with it: protein: recombinant; tags: 6xHis; chain copies: 2.
Where [5] appears, read: label: Cy5 (Methods EMSA: Cy3), blunt.

Take CAUAAUAAGAGGCUGGAUUUUUGGUA (ssRNA) [ssRNA22]: the figures for the Kd in data set [1] (label: Cy5) and in data set [2] (label: Cy5) were 291 ± 121 nM and 2730 ± 588 nM, respectively.

B1: hybridized RNA2 (RNA2-Cy5/RNA7) (dsRNA)
RNA 1: CUGCACCUCAUGGUCAUGUUAUGGUU
RNA 2: GACCAUGAGGUGCAG
As for B1, in data set [3], the binding result is on record as “binds”. As for AACCAUAACAUGACCAUGAGGUGCAG (ssRNA) [ssRNA3], the Kd in data set [1] (label: Cy5 (Methods EMSA: Cy3)) was 1260 ± 722 nM; in data set [2] (label: Cy5 (Methods EMSA: Cy3)) it was 4290 ± 427 nM. UUCGUCCGGGUGUGACCGAAAGGUAA (ssRNA) [ssRNA20]: the Kd in data set [1] (label: Cy5) is 425 ± 186 nM; in data set [2] (label: Cy5) it was 8540 ± 4510 nM.

B2: DNA of Fig. S2F (mixed)
DNA 1: TTTCGGCCTCATCAGGTCATCGCTTTAGTGAGGGTTAATAAA
DNA 2: TTATTAACCCTCACTAAA
As to B2, the binding result in data set [4] is recorded as “binds”.

B3: dsRNA20 (dsRNA)
RNA 1: UUCGUCCGGGUGUGACCGAAAGGUAA
RNA 2: UUACCUUUCGGUCACACCCGGACGAA
Regarding B3, the Kd in data set [1] (label: Cy5, blunt) is 398 ± 157 nM; in data set [2] (label: Cy5, blunt), 3300 ± 394 nM.

B4: dsRNA22 (dsRNA)
RNA 1: CAUAAUAAGAGGCUGGAUUUUUGGUA
RNA 2: UACCAAAAAUCCAGCCUCUUAUUAUG
For the molecule B4, the Kd in data set [1] (label: Cy5, blunt) was 344 ± 132 nM; in data set [2] (label: Cy5, blunt) it was 1840 ± 252 nM.

B5: dsRNA3 (dsRNA)
RNA 1: AACCAUAACAUGACCAUGAGGUGCAG
RNA 2: CUGCACCUCAUGGUCAUGUUAUGGUU
As to B5, the Kd in data set [1] (setting [5]) stood at 647 ± 151 nM; in data set [2] (setting [5]) it was 2550 ± 567 nM.

What is called Kd is the concentration at which binding is half-saturated.
